Legend:
[1] = biological target: T1, SARS-CoV-2 receptor binding domain (RBD), wild type, monomeric (SARS-CoV-2, GenBank MN975262.1 (wild …, UniProt A0A679G9E9)); assay: ELISA
[2] = biological target: SARS-CoV RBD (SARS-CoV, GenBank ABD72970.1, UniProt Q202E5); assay: ELISA
[3] = biological target: SHC014 RBD (bat CoV SHC014, GenBank QJE50589.1, UniProt A0A6M3U4F6); assay: ELISA
[4] = biological target: WIV1 RBD (bat SARS-like CoV WIV1, GenBank …, UniProt U5WI05); assay: ELISA
[5] = biological target: RaTG13 RBD (bat CoV RaTG13, GenBank MN996532.2, UniProt A0ABF7PLN6); assay: ELISA
[6] = biological target: T1, SARS-CoV-2 receptor binding domain …; assay: BLI

Measured: binding result

B1: ab007 IgG (antibody, V domains shown)
VH: QVQLVQSGAEVKKPGSSVKVSCKASGGTFSSYAISWVRQAPGQGLEWMGGIIPIFGTANYAQKFQGRVTITADESTSTAYMELSSLRSEDTAVYYCASPHCSSTSCLYHYYYYGMDVWGQGTTVTVSS
VL: not shown
binds: [1]

B2: ab109 IgG (antibody, V domains shown)
VH: QVQLVQSGGGVVQPGRSLRLSCAASGFTFSSYAMHWVRQAPGKGLEWVAVISYDGSNKYYADSVKGRFTISRDNSKNTLYLQMNSLRAEDTAVYYCARDQEYYDILTGASGGFDYWGQGTLVTVSS
VL: not shown
binds: [2] | [3] | [4] | [1] | [5]

B3: ab072 IgG (antibody, V domains shown)
VH: not shown
VL: QSALTQPASVSGSPGQSITISCTGTSSDVGGYNYVSWYQQHPGKAPKLMIYDVSNRPSGVSNRFSGSKSGNTASLTISGLQAEDEADYYCSSYTSSSTLVVFGTGTKVTVL
binds: [2] | [3] | [4] | [1] | [5]

B4: ab072 Fab (Fab, V domains shown)
VH: not shown
VL: QSALTQPASVSGSPGQSITISCTGTSSDVGGYNYVSWYQQHPGKAPKLMIYDVSNRPSGVSNRFSGSKSGNTASLTISGLQAEDEADYYCSSYTSSSTLVVFGTGTKVTVL
binds: [6]

B5: ab017 IgG (antibody, V domains shown)
VH: not shown
VL: QSVLTQPASVSGSPGQSITISCTGTSSDVGGYNYVSWYQQHPGKAPKLMIYDVSNRPSGVSNRFSGSKSGNTASLTISGLQAEDEADYYCSSYTSSSSVVFGGGTKLTVL
binds: [2] | [3] | [4] | [1] | [5]

B6: ab114 IgG (antibody, V domains shown)
VH: QVQLVQSGGGVVQPGRSLRLSCAASGFTFSSYGMHWVRQAPGKGLEWVAVIWYDGSNKYYADSVKGRFTISRDNSKNTLYLQMNSLRAEDTAVYYCARDVSSGWSPGDFDYWGQGTLVTVSS
VL: QSVLTQPASVSGSPGQSITISCTGTSSDVGGYNYVSWYQQHPGKAPKLMIYEVSNRPSGVSNRFSGSKSGNTASLTISGLQAEDEADYYCSSYTSSSTYVFGTGTKVTVL
binds: [2] | [3] | [4] | [1] | [5]

B7: ab119 IgG (antibody, V domains shown)
VH: EVQLVESGGGLIQPGGSLRLSCAASGFTVSSNYMSWVRQAPGKGLEWVSVIYSGGSTYYADSVKGRFTISRDNSKNTLYLQMNSLRAEDTAVYYCARDLRGITWGQGTLVTVSS
VL: not shown
binds: [1]

Source: publication PMC7885909 (bioRxiv, 2021)
